Tests used:
[1] = target: anti-CD19 T-ChARM^2 with 4-1BB/CD3ζ effector domain; assay: flow cytometry of CD19-ChARM2 T cells; gated FSC/SSC, PI-negative, CD4+; StrepTactin-APC lot 5010-1015; gate from 10^3 on the APC-A axis [Continued]
[2] = target: anti-CD19 T-ChARM^3 with 4-1BB/CD3ζ effector domain; assay: flow cytometry of CD19-ChARM3 T cells; gated FSC/SSC, PI-negative, CD4+; StrepTactin-APC lot 5010-1015; gate from 10^3 on the APC-A axis [Continued]
[3] = target: anti-CD19 T-ChARM^2 with 4-1BB/CD3ζ effector domain; assay: flow cytometry of CD19-ChARM2 T cells; gated FSC/SSC, PI-negative, CD4+; StrepTactin-APC lot 5010-1018; gate from 10^3 on the APC-A axis [Continued]
[4] = target: anti-CD19 T-ChARM^3 with 4-1BB/CD3ζ effector domain; assay: flow cytometry of CD19-ChARM3 T cells; gated FSC/SSC, PI-negative, CD4+; StrepTactin-APC lot 5010-1018; gate from 10^3 on the APC-A axis [Continued]
[5] = target: anti-CD19 CAR (short), IgG4 hinge only, 4-1BB/CD3ζ, no tag; assay: flow cytometry of CD19(Short) CAR T cells (no tag, control); gated FSC/SSC, PI-negative, CD4+; StrepTactin-APC lot 5010-1015; gate from 10^3 on the APC-A axis [Continued]
[6] = target: anti-CD19 CAR (short), IgG4 hinge only, 4-1BB/CD3ζ, no tag; assay: flow cytometry of CD19(Short) CAR T cells (no tag, control); gated FSC/SSC, PI-negative, CD4+; StrepTactin-APC lot 5010-1018; gate from 10^3 on the APC-A axis [Continued]
[7] = target: anti-CD19 T-ChARM^3 with 4-1BB/CD3ζ effector domain; assay: immunomagnetic selection on a MACS column of T-ChARM3 T cells mixed with control T cells with StrepTactin Nanobeads 3#; retained fraction stained with anti-Strep tag-FITC, flow cytometry; 30.2 before enrichment [Continued]
[8] = target: anti-CD19 T-ChARM^3 with 4-1BB/CD3ζ effector domain; assay: immunomagnetic selection on a MACS column of T-ChARM3 T cells mixed with control T cells with StrepTactin Microbeads 1#; retained fraction stained with anti-Strep tag-FITC, flow cytometry; 30.2 before enrichment [Continued]
[9] = target: anti-CD19 T-ChARM^3 with 4-1BB/CD3ζ effector domain; assay: immunomagnetic selection on a MACS column of T-ChARM3 T cells mixed with control T cells with StrepTactin Microbeads 2#; retained fraction stained with anti-Strep tag-FITC, flow cytometry; 30.2 before enrichment [Continued]
[10] = target: anti-CD19 T-ChARM^3 with 4-1BB/CD3ζ effector domain; assay: immunomagnetic selection on a MACS column of T-ChARM3 T cells mixed with control T cells with StrepTactin Microbeads 1#; effluent (not retained) stained with anti-Strep tag-FITC, flow cytometry; 30.2 before enrichment [Continued]

percent of cells in the StrepTactin-APC (APC-A) positive gate [1]: 92%
percent of cells in the StrepTactin-APC (APC-A) positive gate [2]: 94.7%
percent of cells in the StrepTactin-APC (APC-A) positive gate [3]: 93.5%
percent of cells in the StrepTactin-APC (APC-A) positive gate [4]: 96.5%
percent of cells in the StrepTactin-APC (APC-A) positive gate [5]: 18.1%
percent of cells in the StrepTactin-APC (APC-A) positive gate [6]: 24.9%
percent STII (FITC-A) positive cells in the bead-retained fraction (Enrichment) [7]: 80.5%
percent STII (FITC-A) positive cells in the bead-retained fraction (Enrichment) [8]: 77.7%
percent STII (FITC-A) positive cells in the bead-retained fraction (Enrichment) [9]: 87%
percent STII (FITC-A) positive cells in the column effluent [10]: 9.91%
Substance: Strep-Tactin

From patent publication US20170267756A1
